The text below walks through data of US20100266576A1 (CENTRE NATIONAL DE LA RECHERCHE SCIENT, published 2010).

The Kd is the concentration at which binding is half-saturated. A high value points to lower affinity.

For one assay, the target named is T1, Aβ42 fragment 10-20.
T1 construct: Bought from Bachem; also called Aβ 10-20
T1 peptide: YEVHHQKLVFF
The experiment in a line: competition ELISA for KD (Friguet method) with Aβ fragment peptides. Here is the method: (§1) Binding affinity of VHH antibodies was determined as described in Friguet et al., (1985). Various concentrations of Aβ peptides were incubated in solution overnight at 4° C. with a known quantity of VHH antibody until equilibrium was reached. The VHH antibody concentration used was determined by preliminary ELISA calibrations. Each mixture (100 μl) was transferred to a well of a microtiter plate previously coated with antigen and was incubated for 20 min at 4° C. The plates were washed with buffer A and free VHH antibodies were detected by adding β-galactosidase-conjugated goat anti-rabbit Igs (Biosys, Compiegne, France) and 4-methylumbelliferyl β-D galactoside (Sigma). Fluorescence was read (Fluoroskan, Labsystem, Finland) at 460 nm, after excitation at 355 nm. KD was estimated from the slope of the regression curve obtained by plotting the reciprocal of the fraction of bound antibody versus the reciprocal of the molar concentration of antigen.
(In general: ELISA stands for enzyme-linked immunosorbent assay.)

In a further assay the target is T2, Aβ42 fragment 15-25.
T2 construct: Bought from Bachem; also called Aβ 15-25
T2 peptide: QKLVFFAEDVG
The description is as above. Here is the method:
as §1

In the next assay the target is T3, Aβ42 fragment 22-35.
T3 construct: Bought from Bachem; also called Aβ 22-35
T3 peptide: EDVGSNKGAIIGLM
The description is as above. Here is the method:
as §1

The next assay addresses T4, Aβ42 fragment 1-11.
T4 construct: Bought from Bachem; also called Aβ 1-11; printed as fragment 1-10 in the result sentence
T4 peptide: DAEFRHDSGYE
The description is as above. The procedure:
as §1

Another assay has as its target T5, peptide Aβ 29-40.
T5 construct: Bought from Bachem; also called Aβ42 fragment 29-40
T5 peptide: GAIIGLMVGGVV
The experiment in a line: competition ELISA in solution (Friguet method). Here is the method: as §1

Another assay concerns the target T6, peptide Aβ 33-42.
T6 construct: Bought from Bachem; also called Aβ42 fragment 33-42
T6 peptide: GLMVGGVVIA
The experiment in a line: competition ELISA in solution (Friguet method). Here is the method: as §1

The target of assay [1] is T7, amyloid β peptide 42 (Aβ42).
T7 construct: Synthetic peptide bought from Bachem, used as monomer/oligomer mixtures after incubation at 37 C; also called Aβ42 monomer; Aβ42 oligomers
Briefly: immunohistochemistry on human AD brain sections. Here is the method: Immunostaining of brain tissue was performed on […] thick paraffin sections. Sections were de-paraffinized in xylene, rehydrated through ethanol
(100%, 96%, and 90%) and finally brought to water. They were incubated in 90% formic acid, washed again in water, quenched for endogenous peroxidase with 3% hydrogen peroxyde and 20% methanol, and finally washed in water. Non-specific binding was blocked by incubating the sections for 10 minutes in 2% bovine serum albumin in TBS+0.5% Tween. Appropriate dilutions of primary antibodies were then applied overnight in a humidified chamber at room temperature (typically 1 μg/ml for VHH, and 1:200 for 6F/3D mAb). Slides were washed with TBS-Tween and incubated with secondary antibodies (rabbit anti-His Tag or biotinylated anti-mouse immunoglobulins) in TBS-Tween at room temperature for 2 hours. Slides were then incubated with either peroxidase goat anti-rabbit immunoglobulins or streptavidine-peroxidase fusions, and developed with diaminobenzidine (DAB) for 2 minutes. After washing with TBS-Tween, slides were counter-stained with hematoxylin and eosin.

T7 sequence (peptide, as listed by the source): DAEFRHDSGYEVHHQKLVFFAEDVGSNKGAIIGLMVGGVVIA

B1: VHH V31-1 (VHH)
VHH: EVQLQASGGGSVQPGGSLRLSCAASGFIFGWSTMSWVRQAPGKGLEWVSTISGGGSATTYTDSVKGRFTISRDRAKNTLYLQMNSLKPEDTAIYYCNADVSTGFRYQRKDYWGRGTQVTVS
notes: Camelid VHH subcloned from pHEN1 into pET22, expressed in the E. coli periplasm and purified by Ni-NTA IMAC; It was detected with anti-c-myc or anti-His tag antibodies; also called VHH V31-1 antibody; CNCM I-2936
As to B1, the binding result with Aβ42 fragment 10-20, with Aβ42 fragment 15-25, with Aβ42 fragment 22-35 and with Aβ42 fragment 1-11 was “no binding” in each case. Moreover, the Kd with peptide Aβ 29-40 and in the assay with peptide Aβ 33-42 was 20 nM throughout.

B2: VHH 61-3 (VHH)
VHH: EVQLQASGGGLVQAGGSLRLSCAASGSTFRINRMGWYRQAPGKQRELVASINSGGSTNYADSVKGRFTISRDNAKGTVNLTMNSLKPEDTAVYYCNRVTPWPYWGQGTQVTVS
notes: Expressed from pET22 and purified by Ni-NTA; also called CNCM I-2933
Regarding B2, in assay [1], the binding result is listed as “binds”.
